Test results from IntAct's records for PubMed 18060821.

B1: MAPK phosphothreonine lyase (Salmonella enteritidis), P0A2N1 (parent)
chain: MPINRPNLNLNIPPLNIVAAYDGAEIPSTNKHLKNNFNSLHNQMRKMPVSHFKEALDVPDYSGMRQSGFFAMSQGFQLNNHGYDVFIHARRESPQSQGKFAGDKFHISVLRDMVPQAFQALSGLLFSEDSPVDKWKVTDMEKVVQQARVSLGAQFTLYIKPDQENSQYSASFLHKTRQFIECLESRLSENGVISGQCPESDVHPENWKYLSYRNELRSGRDGGEMQRQALREEPFYRLMTE

Variants of: B1
Details: with mk07_human MAPK7, Q13164
Chain of mk07_human MAPK7, Q13164 (Q13164 whole entry, looked up): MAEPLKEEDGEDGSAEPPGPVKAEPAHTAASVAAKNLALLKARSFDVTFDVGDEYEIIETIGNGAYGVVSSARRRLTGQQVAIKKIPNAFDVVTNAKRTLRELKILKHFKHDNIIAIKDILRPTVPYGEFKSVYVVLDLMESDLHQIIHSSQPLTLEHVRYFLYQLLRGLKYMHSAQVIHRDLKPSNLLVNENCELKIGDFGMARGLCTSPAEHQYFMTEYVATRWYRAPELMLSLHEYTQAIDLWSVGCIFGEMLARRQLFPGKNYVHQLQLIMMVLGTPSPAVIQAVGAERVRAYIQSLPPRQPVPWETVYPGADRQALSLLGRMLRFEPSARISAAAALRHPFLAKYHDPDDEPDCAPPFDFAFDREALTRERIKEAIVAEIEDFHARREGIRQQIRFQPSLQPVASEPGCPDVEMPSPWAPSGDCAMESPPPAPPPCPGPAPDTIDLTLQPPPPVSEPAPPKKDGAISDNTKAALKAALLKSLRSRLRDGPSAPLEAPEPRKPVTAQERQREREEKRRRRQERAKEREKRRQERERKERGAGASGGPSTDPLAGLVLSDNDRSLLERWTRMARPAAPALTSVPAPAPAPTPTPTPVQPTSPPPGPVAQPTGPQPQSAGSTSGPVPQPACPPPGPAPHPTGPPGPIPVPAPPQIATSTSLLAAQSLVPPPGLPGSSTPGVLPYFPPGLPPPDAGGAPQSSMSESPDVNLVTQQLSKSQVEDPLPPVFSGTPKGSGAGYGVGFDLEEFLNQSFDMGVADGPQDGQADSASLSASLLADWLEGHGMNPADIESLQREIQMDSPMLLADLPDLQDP

| Variant | effect of a mutation on the interaction |
| --- | --- |
| K136A | with no effect |

Variants of: B1
Details: with mk07_human MAPK7, Q13164
Remark: another data set of the same source

| Variant | effect of a mutation on the interaction |
| --- | --- |
| K136A | causing an interaction |
| H106A;K136A | disrupting interaction |
